From doi:10.1101/430827 (bioRxiv, 2018) come the findings set out here.

Data set [1] concerns the target M2345/WT IRSp53 heterodimer (UniProt Q9UQB8). The data set can be described thus: co-IP.
Data set [2] addresses WT/M2345 IRSp53 heterodimer (UniProt Q9UQB8). Nature of the data set: co-IP.
The target in another data set is 2xFLAG-Eps8 (human, UniProt Q12929 1-822). The data set can be described thus: other fluorescence titration.
The target of data set [3] is FLAG-Eps8/pIRSp53 complex (human | , UniProt Q12929 1-822; Q9UQB8-4 1-521, phosphorylated (pIRSp53, as m4)). The data set can be described thus: pull-down.
Chain of FLAG-Eps8/pIRSp53 complex (Q12929 whole entry, one chain of several): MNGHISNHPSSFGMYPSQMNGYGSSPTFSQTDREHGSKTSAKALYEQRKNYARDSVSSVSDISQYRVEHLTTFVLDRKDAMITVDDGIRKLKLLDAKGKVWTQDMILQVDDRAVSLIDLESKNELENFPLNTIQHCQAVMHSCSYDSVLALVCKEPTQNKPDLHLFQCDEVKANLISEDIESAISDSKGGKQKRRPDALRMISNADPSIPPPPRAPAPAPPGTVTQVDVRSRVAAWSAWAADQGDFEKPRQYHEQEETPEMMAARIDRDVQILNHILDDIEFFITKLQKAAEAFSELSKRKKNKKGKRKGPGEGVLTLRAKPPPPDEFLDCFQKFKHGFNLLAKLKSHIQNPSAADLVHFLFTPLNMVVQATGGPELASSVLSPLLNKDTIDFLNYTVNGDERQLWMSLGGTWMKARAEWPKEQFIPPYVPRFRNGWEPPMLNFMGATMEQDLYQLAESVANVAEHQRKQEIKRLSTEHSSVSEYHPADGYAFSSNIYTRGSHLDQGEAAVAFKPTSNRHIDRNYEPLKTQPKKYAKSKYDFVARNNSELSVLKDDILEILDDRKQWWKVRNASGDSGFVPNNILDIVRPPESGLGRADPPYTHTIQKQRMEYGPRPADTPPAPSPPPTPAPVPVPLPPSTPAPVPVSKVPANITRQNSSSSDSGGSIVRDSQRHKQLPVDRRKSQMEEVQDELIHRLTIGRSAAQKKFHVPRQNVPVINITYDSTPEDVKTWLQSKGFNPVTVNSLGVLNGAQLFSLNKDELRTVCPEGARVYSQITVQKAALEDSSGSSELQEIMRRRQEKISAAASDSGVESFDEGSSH
The data set “crystal structure” deals with the molecule itself. The data set can be described thus: crystal structure.

Chain of 2xFLAG-Eps8 (Q12929 whole entry): as the sequence (Q12929 whole entry, one chain of several) above

With “endogenous 14-3-3 (all isoforms included) (from UniProt P27348 1-245) (natural protein)”, the percent of the amount that coimmunoprecipitates with WT/WT IRSp53 in data set [1] and in data set [2] was 50% throughout.

B1: pIRSp53FS (natural protein, UniProt Q9UQB8-4 1-521, looked up)
chain: MSLSRSEEMHRLTENVYKTIMEQFNPSLRNFIAMGKNYEKALAGVTYAAKGYFDALVKMGELASESQGSKELGDVLFQMAEVHRQIQNQLEEMLKSFHNELLTQLEQKVELDSRYLSAALKKYQTEQRSKGDALDKCQAELKKLRKKSQGSKNPQKYSDKELQYIDAISNKQGELENYVSDGYKTALTEERRRFCFLVEKQCAVAKNSAAYHSKGKELLAQKLPLWQQACADPSKIPERAVQLMQQVASNGATLPSALSASKSNLVISDPIPGAKPLPVPPELAPFVGRMSAQESTPIMNGVTGPDGEDYSPWADRKAAQPKSLSPPQSQSKLSDSYSNTLPVRKSVTPKNSYATTENKTLPRSSSMAAGLERNGRMRVKAIFSHAAGDNSTLLSFKEGDLITLLVPEARDGWHYGESEKTKMRGWFPFSYTRVLDSDGSDRLHMSLQQGKSSSTGNLLDKDDLAIPPPDYGAASRAFPAQTASGFKQRPYSVAVPAFSQGLDDYGARSMSSGSGTLVCTV
modifications: natively phosphorylated in HEK293T cells; C230 and C519 labeled with the donor/acceptor pair fluorescein maleimide/rhodamine maleimide
Regarding B1, the dissociation constant (Kd) with 2xFLAG-Eps8 was found to be 42 nM.

B2: 14-3-3θ (natural protein, human)
chain: MEKTELIQKAKLAEQAERYDDMATCMKAVTEQGAELSNEERNLLSVAYKNVVGGRRSAWRVISSIEQKTDTSDKKLQLIKDYREKVESELRSICTTVLELLDKYLIANATNPESKVFYLKMKGDYFRYLAEVACGDDRKQTIDNSQGAYQEAFDISKKEMQPTHPIRLGLALNFSVFYYEILNNPELACTLAKTAFDEAIAELDTLNEDSYKDSTLIMQLLRDNLTLWTSDSAGEECDAAEGAEN
Turning to B2, the binding result (in data set [3]; in “crystal structure”) was “binds” each time.

One may read the Kd as the constant that tells how readily two partners part at equilibrium.
